The results in this text go back to PMC5916938.

The target of this assay is porcine brain tubulin (alpha/beta heterodimer), as paclitaxel-stabilised microtubule lattice (straight tubulin) or as curved tubulin protofilaments (porcine) (UniProt P02550). Description: cryo-EM 2D class averages; CTNM AMP-PNP: 15 uM KLP10A NM with 3 uM polymerized tubulin in BRB80, 5 mM AMPPNP, 5 mM MgCl2, 20 uM paclitaxel, 5 min at room temperature; ring-like curved tubulin complexes not wrapped around microtubules, aligned and classified in 2D. The settings on record: scale: KLP10A motor domain per tubulin heterodimer.
Chain of UniProt P02550 (P02550 whole entry, chain 1 of 2, the tested form may be a part): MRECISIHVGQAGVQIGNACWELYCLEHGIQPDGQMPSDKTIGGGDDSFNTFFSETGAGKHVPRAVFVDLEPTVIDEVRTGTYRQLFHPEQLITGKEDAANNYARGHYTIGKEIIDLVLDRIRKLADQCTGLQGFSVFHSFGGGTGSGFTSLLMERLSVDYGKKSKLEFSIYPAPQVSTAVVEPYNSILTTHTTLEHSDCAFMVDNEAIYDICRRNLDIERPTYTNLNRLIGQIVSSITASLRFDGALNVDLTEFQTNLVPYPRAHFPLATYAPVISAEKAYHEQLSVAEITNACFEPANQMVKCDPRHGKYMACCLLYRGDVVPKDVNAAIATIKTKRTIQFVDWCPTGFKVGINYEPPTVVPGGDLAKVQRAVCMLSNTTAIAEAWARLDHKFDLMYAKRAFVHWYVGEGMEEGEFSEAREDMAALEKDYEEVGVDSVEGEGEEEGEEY
Chain of UniProt P02550 (P02554 1-439, chain 2 of 2, further chain): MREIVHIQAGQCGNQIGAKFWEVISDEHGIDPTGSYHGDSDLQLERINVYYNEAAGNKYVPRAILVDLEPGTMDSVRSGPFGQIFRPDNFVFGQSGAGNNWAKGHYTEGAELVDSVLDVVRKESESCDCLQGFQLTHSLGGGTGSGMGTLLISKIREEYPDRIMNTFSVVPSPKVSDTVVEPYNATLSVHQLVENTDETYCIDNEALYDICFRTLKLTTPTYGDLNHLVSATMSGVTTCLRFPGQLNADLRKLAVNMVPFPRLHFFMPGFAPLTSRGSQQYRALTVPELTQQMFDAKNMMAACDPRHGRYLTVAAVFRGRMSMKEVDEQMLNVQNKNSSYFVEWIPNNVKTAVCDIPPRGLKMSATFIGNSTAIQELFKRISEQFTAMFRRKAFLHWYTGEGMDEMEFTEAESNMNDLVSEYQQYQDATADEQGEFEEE

Values joined by “and” are separate entries in the source; they are usually repeats but may differ in a detail not shown here. Identical values can stand only once.

As a reminder, the stoichiometry N is the number of molecules, sites or subunits per partner or assembly.

Consider “Drosophila melanogaster kinesin-13 KLP10A neck motor construct (NM), residues 198-615 (from UniProt Q960Z0 198-615) (domain or fragment)”, for which the stoichiometry N is 1 and 0.5.
